Test results published in patent publication US20170334947A1.

Assays:
[1] = molecular target: Fab fragment of anti-TNFα monoclonal antibody (generic name: Adalimumab) (humanized monoclonal IgG product (filing's words)); experiment: affinity chromatography, ligand […]-gel
[2] = molecular target: Fab fragment of anti-TNFα monoclonal antibody (generic name: Adalimumab) (humanized monoclonal IgG product (filing's words)); experiment: affinity chromatography, Fab kept after 40 CV wash, ligand […]-gel, 10.5 mg Fab loaded
[3] = molecular target: Fab fragment of anti-TNFα monoclonal antibody (generic name: Adalimumab) (humanized monoclonal IgG product (filing's words)); experiment: affinity chromatography, Fab kept after 40 CV wash, ligand 2.0 mg/mL-gel, 5.2 mg Fab loaded
[4] = molecular target: Fab fragment of anti-TNFα monoclonal antibody (generic name: Adalimumab) (humanized monoclonal IgG product (filing's words)); experiment: affinity chromatography, 55% DBC divided by immobilised ligand, 2.0 mg/mL-gel
[5] = molecular target: Fab fragment of anti-TNFα monoclonal antibody (generic name: Adalimumab) (humanized monoclonal IgG product (filing's words)); experiment: affinity chromatography, ligand 2.0 mg/mL-gel
[6] = molecular target: Fab fragment of anti-TNFα monoclonal antibody (generic name: Adalimumab) (humanized monoclonal IgG product (filing's words)); experiment: affinity chromatography, Fab kept after 40 CV wash, ligand 2.0 mg/mL-gel, 4.8 mg Fab loaded
[7] = molecular target: Fab fragment of anti-TNFα monoclonal antibody (generic name: Adalimumab) (humanized monoclonal IgG product (filing's words)); experiment: affinity chromatography, Protein-G Sepharose FF

Substance	55% DBC [1] [mg/mL-gel]	Recovery rate [2] [%]	Recovery rate [3] [%]	Binding capacity per ligand density [4]	55% DBC [5] [mg/mL-gel]	Recovery rate [6] [%]	55% DBC [7] [mg/mL-gel]
Pep-SpGβ1-Wild.2dC	21	43	28	5.2	10.4	–	–
Protein G ligand of the commercial carrier HiTrap Protein-G HP (GE Healthcare)	–	–	–	–	9.7	6	–
Protein G ligand of the commercial carrier Protein-G Sepharose FF (GE Healthcare)	–	–	–	–	–	–	6.2
